This is an account of results in patent publication US20220386594A1 (IBI AG INNOVATIVE BIO INSECTICIDES, published 2022).

T1: Helicoverpa armigera V-ATPase subunit c (Helicoverpa armigera)
T1 construct: also called V-ATPases Subunit C; ATPase V subunit c
T1 chain: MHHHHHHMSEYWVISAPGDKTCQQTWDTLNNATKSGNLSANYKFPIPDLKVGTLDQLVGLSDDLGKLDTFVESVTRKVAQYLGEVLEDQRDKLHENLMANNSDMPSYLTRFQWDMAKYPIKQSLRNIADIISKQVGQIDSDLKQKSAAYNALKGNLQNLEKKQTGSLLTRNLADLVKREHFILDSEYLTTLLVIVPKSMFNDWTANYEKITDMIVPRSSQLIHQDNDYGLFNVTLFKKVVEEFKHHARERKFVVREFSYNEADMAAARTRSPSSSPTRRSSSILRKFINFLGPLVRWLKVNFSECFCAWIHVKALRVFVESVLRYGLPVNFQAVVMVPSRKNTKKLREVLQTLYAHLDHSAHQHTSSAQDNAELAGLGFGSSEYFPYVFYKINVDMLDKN

T2: Helicoverpa armigera trehalase (Helicoverpa armigera)
T2 construct: the tag is not part of the printed entry; also called TRH; target TRH antigen
T2 chain: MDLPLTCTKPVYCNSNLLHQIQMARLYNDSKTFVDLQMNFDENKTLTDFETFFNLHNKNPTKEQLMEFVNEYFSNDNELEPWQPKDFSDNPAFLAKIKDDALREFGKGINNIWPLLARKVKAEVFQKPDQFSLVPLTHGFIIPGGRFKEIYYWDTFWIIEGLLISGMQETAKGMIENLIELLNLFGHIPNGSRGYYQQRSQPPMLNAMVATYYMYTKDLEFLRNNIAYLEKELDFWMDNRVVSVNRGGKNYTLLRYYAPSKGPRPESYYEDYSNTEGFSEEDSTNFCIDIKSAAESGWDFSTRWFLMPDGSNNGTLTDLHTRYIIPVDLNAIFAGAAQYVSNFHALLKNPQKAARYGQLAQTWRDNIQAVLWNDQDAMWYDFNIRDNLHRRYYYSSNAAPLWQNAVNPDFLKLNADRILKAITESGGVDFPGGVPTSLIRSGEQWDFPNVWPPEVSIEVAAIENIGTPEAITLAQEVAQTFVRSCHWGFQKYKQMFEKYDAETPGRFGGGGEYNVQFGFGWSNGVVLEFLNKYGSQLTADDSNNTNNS

T3: Helicoverpa armigera chitin synthase (Helicoverpa armigera)
T3 construct: the tag is not part of the printed entry; also called CHS; target CHS antigen
T3 chain: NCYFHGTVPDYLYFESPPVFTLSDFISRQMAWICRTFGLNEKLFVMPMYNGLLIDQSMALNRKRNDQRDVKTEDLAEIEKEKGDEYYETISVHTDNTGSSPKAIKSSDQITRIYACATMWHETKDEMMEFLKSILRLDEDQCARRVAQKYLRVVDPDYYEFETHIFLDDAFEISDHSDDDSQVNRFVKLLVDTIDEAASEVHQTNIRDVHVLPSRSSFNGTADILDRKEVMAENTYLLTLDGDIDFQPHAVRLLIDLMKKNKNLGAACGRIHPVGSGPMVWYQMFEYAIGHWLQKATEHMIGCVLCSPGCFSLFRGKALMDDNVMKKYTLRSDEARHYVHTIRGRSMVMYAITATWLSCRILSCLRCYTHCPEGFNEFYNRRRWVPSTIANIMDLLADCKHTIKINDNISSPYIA

T4: Helicoverpa armigera NPC1 sterol transporter (Helicoverpa armigera)
T4 construct: the tag is not part of the printed entry; also called target NPC antigen; target NPC1 antigen
T4 chain: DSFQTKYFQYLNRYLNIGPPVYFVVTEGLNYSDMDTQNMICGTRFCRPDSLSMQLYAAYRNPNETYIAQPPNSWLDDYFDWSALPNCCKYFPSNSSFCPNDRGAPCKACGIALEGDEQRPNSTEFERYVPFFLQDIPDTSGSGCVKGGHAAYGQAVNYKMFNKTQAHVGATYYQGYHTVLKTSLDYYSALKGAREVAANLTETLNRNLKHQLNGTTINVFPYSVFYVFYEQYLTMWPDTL

B1: VAT0101B (VHH)
VHH: QVQLQESGGGLVQAGGSLRLSCAASGSTLSGYIMSWFRQPPGKERELVAAITYVGSTYVEDSVKGRFTISRDNAKNTVSLQMNSLKPEDTAVYYCRAREGEQLDFWGQGTQVTVSS
notes: Llama nanobody, His-tagged, expressed in E. coli SHuffle T7; also called anti-VAT nanobody VAT0101B
B2: VAT0101G (VHH)
VHH: B1 VHH with L29F, Y58W, V59Y, E60Q
notes: Llama nanobody, His-tagged, expressed in E. coli SHuffle T7; also called VATO101G; anti-VAT nanobody VAT0101G
B3: VAT0101D (VHH)
VHH: B1 VHH with A14P, A23V, L29F
notes: Llama nanobody, His-tagged, expressed in E. coli SHuffle T7; also called anti-VAT nanobody VAT0101D
B4: VAT0101E (VHH)
VHH: B1 VHH with G16D, L29F
notes: Llama nanobody, His-tagged, expressed in E. coli SHuffle T7; also called anti-VAT nanobody VAT0101E
B5: VAT0101F (VHH)
VHH: B1 VHH with L11T, L29F
notes: Llama nanobody, His-tagged, expressed in E. coli SHuffle T7; also called anti-VAT nanobody VAT0101F
B6: VAT0101C (VHH)
VHH: B1 VHH with A14S, G16D, L29F
notes: Llama nanobody, His-tagged, expressed in E. coli SHuffle T7; also called anti-VAT nanobody VAT0101C
B7: TRH13 (VHH)
VHH: QVQLQESGGGLVQAGGSLRLTCAATVRIFSSYTMGWFRQSPGKEREFVGAITWSGGNTYYADSVKGRFTISRDNAKNTVYLQMNSLKSEDTAVYYCAADPGRSYVLSRYYDQASYDYWGQGTQVTVSS
notes: Llama nanobody, His-tagged, expressed in E. coli SHuffle T7; also called anti-TRH nanobody TRH13
B8: TRH12 (VHH)
VHH: QVQLQESGGGLVQAGGSLRLSCAASTSTVSDYHMGWFRQGPGKEREFVAAISWSGDSTDYADSVKARFTISRDNAKKTMSLQMNSLKPEDTAAYYCAARRVFKATWDYWGQGTQVTVSS
notes: Llama nanobody, His-tagged, expressed in E. coli SHuffle T7; also called anti-TRH nanobody TRH12
B9: TRH14 (VHH)
VHH: QVQLQESGGGLVQAGDSLRLSCAASGRPFSSYTMGWFRQAPGKEREFVAAISWSGGTTYYTDSVQGRFTISRDNAKNTVYLQMNRLKPEDTAVYYCATDVGRIYGGGSLYSSAFSYDYWGQGTQVTVSS
notes: Llama nanobody, His-tagged, expressed in E. coli SHuffle T7; also called anti-TRH nanobody TRH14
B10: TRH1A (VHH)
VHH: QVQLQESGGGLVQAGGSLRLSCATSGRAFTNYHMGWFRQTPGKEREFVALISWSGDSTRYADSVKGRFTISRDNAKRTVALQMDSLKPEDSAVYYCASRLVGQSQYEVWGQGTQVTVSS
notes: Llama nanobody, His-tagged, expressed in E. coli SHuffle T7; also called anti-TRH nanobody TRH1A
B11: CHS02A (VHH)
VHH: QVQLQESGGGLVQAGGSLRLSCAASRGTFSRYVMGWFRQGPGKEREFVAGISWSGISTYYADFVKGRFTISRDNAKNTVYLQMNSLKPEDTAVYYCAADPGRGYDYWGQGTQVTVSS
notes: Llama nanobody, His-tagged, expressed in E. coli SHuffle T7; also called CHS2a; anti-CHS nanobody CHS02A
B12: CHS01A (VHH)
VHH: QVQLQESGGGLVQAGGSLRLSCSASTSIASINAVGWYRQAPGKQRELVAVIVNGSTTRYADSVKGRFTISGDNAENTVPLLMSSLKPEDTAIYYCGARDLSGTYWGQGTQVTVSS
notes: Llama nanobody, His-tagged, expressed in E. coli SHuffle T7; also called CHS1a; anti-CHS nanobody CHS01A
B13: CHS24 (VHH)
VHH: QVQLQESGGGWVQPGGSLRLSCTISGLSRYYAMGWFRQVPGKERESVATISLRGGRTYYADSVEGRFTISRDNAKNTMYLQMNSLKPEDTAVYYCVADTTWGAPRSRYHYWGQGTQVTVSS
notes: Llama nanobody, His-tagged, expressed in E. coli SHuffle T7; also called anti-CHS nanobody CHS24
B14: CHS22 (VHH)
VHH: QVQLQESGGGLVQAGGSLRLSCAASGGTFSGLTMGWFRQAPGKERDFVAAISWNGRFTYYKDSVKGRFAISRDNAKSTVYLQMTSLKPEDTAVYYCGADVLSGRGYRYWGQGTQVTVSS
notes: Llama nanobody, His-tagged, expressed in E. coli SHuffle T7; also called anti-CHS nanobody CHS22
B15: CHS08 (VHH)
VHH: QVQLQESGGGLVQAGSSLRLSCAASGRTFRYHAMGWFRQAPGKEREFVAGISTSGGMTYYPDSVKGRFTISRDNAKNTLYLQMNSLKPGDTAVYYCAKFHGDKGYGSSWYYDYWGQGTQVTVSS
notes: Llama nanobody, His-tagged, expressed in E. coli SHuffle T7; also called CHS8; anti-CHS nanobody CHS08
B16: CHS13 (VHH)
VHH: QVQLQESGGGLVQAGGSLRLSCTVSGGTFTTYTMAWFRQAPGKEREFVAQISWSGGITAYLDSVKGRFTISRDNAKNTVYLQMNSLKPEDTAVYYCARRGRKYEDDYWGQGTQVTVSS
notes: Llama nanobody, His-tagged, expressed in E. coli SHuffle T7; also called anti-CHS nanobody CHS13
B17: CHS18 (VHH)
VHH: QVQLQESGGGLVQAGGSLRLSCTASGRTFSSYSMAWFRQASGKEREIVAAVSRFGKFKYYADSVKGRFTISRDNAKNTLYLQMNSLKPEDTAVYYCAKTDGSSWYLDYWGQGTQVTVSS
notes: Llama nanobody, His-tagged, expressed in E. coli SHuffle T7; also called anti-CHS nanobody CHS18
B18: NPC07A01 (VHH)
VHH: QVQLQESGGGLVQAGDSLRISCKASGRTFSSYPIGWFRQAPGKEREFVAAISRSGGRTYYADSVKGRLTISRDNAKNTVYLQMNSLKLEDTAVYYCAAKTTMGLPVGGTYEYDYWGQGTQVTVSS
notes: Llama nanobody, His-tagged, expressed in E. coli SHuffle T7; also called NPC7a; anti-NPC nanobody NPC07A01
B19: NPC0901 (VHH)
VHH: QVQLQESGGGLVQAGDSLRISCKASGRTFSNYPIGWFRQAPGKEREFVAAISRSGGGTRYADSVKGRFTISRDNAKNTVYLQMNSLKRDDTAVYYCAAYFGNLGGGVGRSSDYDYWGQGTQVTVSS
notes: Llama nanobody, His-tagged, expressed in E. coli SHuffle T7; also called NPC9; anti-NPC nanobody NPC0901
B20: NPC01C01 (VHH)
VHH: QVQLQESGGGLVQVGGSLRISCVASGRTGSYYAMGWFRQAPGKEREFVAAISWNGGMTDYADFVKGRFAISRDNAKTVSLQMNNLKPEDTALYYCTAGPARRSYSYRDGYDYWGQGTQVTVSS
notes: Llama nanobody, His-tagged, expressed in E. coli SHuffle T7; also called NPC1c; anti-NPC nanobody NPC01C01
B21: NPC04C01 (VHH)
VHH: QVQLQESGGGLVQAGGSLRLSCAASGRTFSSYVMGWFRQAPGKERELIGAINRSSTRLYYADSVKGRFSISRDNAKSTVYLQMNSLKPEDTAVYYCAADLVSILGKGYRDVDYWGQGTQVTVSS
notes: Llama nanobody, His-tagged, expressed in E. coli SHuffle T7; also called NPC4c; NPC4C
B22: NPC04D01 (VHH)
VHH: B21 VHH with A14P, L20V, R27F, T28S, S31N
notes: Llama nanobody, His-tagged, expressed in E. coli SHuffle T7; also called NPC4d; NPC4D

Numbering of substitutions follows the chain as printed.

The target of the first assay is T1, Helicoverpa armigera V-ATPase subunit c. The assay can be described thus: ELISA, plate coated with 10 ug/ml target protein, 2 ug/ml nanobody, anti-VHH-HRP, A450. On the technique in general: In an ELISA, binding on a coated surface is turned into a signal by an enzyme label.
Turning to B1, the binding result was “binds”. With B2, the binding result is given as “binds”. For the molecule B3, the binding result was “binds”.

Turning to B4, the binding result was “binds”. With B5, the binding result was “binds”. As for B6, the binding result is listed as “binds”.

Another assay addresses T2, Helicoverpa armigera trehalase. The assay is described as above.
B7: the binding result is “binds”. On to B8, for which the binding result is “binds”. As to B9, the binding result is “binds”.

Regarding B10, the binding result is listed as “binds”.

The target of the next assay is T3, Helicoverpa armigera chitin synthase. The assay is described as above.
For the molecule B11, the binding result was “binds”. Take B12: the binding result is recorded as “binds”. Still for that read-out and setting: in the case of B13 it was “binds”. Same read-out and setting: for B14 the value was “binds”; for B15, “binds”; for B16, “binds”.

As for B17, the binding result is “binds”.

A further assay has as its target T4, Helicoverpa armigera NPC1 sterol …. The description is as above.
With B18, the binding result is recorded as “binds”. Same read-out and setting: for B19 the value was “binds”; for B20, “binds”. The same measure, in the same setting: in the case of B21 it was “binds”; in that of B22, “binds”.
